Data on one molecule can be found in patent US8298545B2, “Anti-autoimmune antibodies for treatment of pemphigus” (The Trustees of the University of Pennsylvania, priority 2007, dated 2012).

For the experiment, the system named is primary human epidermal keratinocytes. The experiment in a line: Keratinocyte dissociation (dispase) assay. The class given is cell-based. The note with it: FIG. 5M-5O. Here is the method:
The keratinocyte dissociation assay was performed as previously described (Payne et al., 2005), using either PV scFv at 5 μg/mL or PV sera at dilutions of 1:5 to 1:7.5 in 500 μL total volume defined keratinocyte-serum free media (Gibco/Invitrogen). For antibodies that only recognize Dsg3, 1 μg/mL exfoliative toxin A (ETA) was added to wells for the last two hours. For antisera depletion assays, 200 μL of PV sera flowthrough (representing a volume of 100 μL, sera, combined with the first 1-volume fraction of the PBS wash) were incubated with cells in a total volume of 500 μL, with or without ETA treatment. Dissociation assays used the total eluate from the antisera columns, concentrated to a volume of 100 μl (representing a starting volume of 250 μL sera).
The question of whether the in vitro inhibition of Dsg binding by ELISA translated into a functional block of antibody pathogenicity was investigated. It was previously shown that neonatal mouse injection is suboptimal for evaluation of pathogenicity of PV mAbs, due to differences in the specificity of mAbs for human versus mouse Dsg substrates. Therefore, the inhibition of mAb pathogenicity was evaluated by a dispase assay using cultured primary human keratinocytes. […]

B1: Exfoliative toxin A: exfoliative toxin A, inactivates Dsg1 (protein, UniProt P09331 39-280, looked up)
Exfoliative toxin A: EVSAEEIKKHEEKWNKYYGVNAFNLPKELFSKVDEKDRQKYPYNTIGNVFVKGQTSATGVLIGKNTVLTNRHIAKFANGDPSKVSFRPSINTDDNGNTETPYGEYEVKEILQEPFGAGVDLALIRLKPDQNGVSLGDKISPAKIGTSNDLKDGDKLELIGYPFDHKVNQMHRSEIELTTLSRGLRYYGFTVPGNSGSGIFNSNGELVGIHSSKVSHLDREHQINYGVGIGNYVKRIINEKNE
As to B1, the “pathogenicity in the keratinocyte dissociation (dispase) assay” value is recorded as “do not demonstrate significant pathogenicity”.
